B1: MATN2 (parent)
chain: FSLKTFKRKSEVERAVKRMRHLST
B2: PTPLAD1 (parent)
chain: YSFYMLTCIDMDWKVLTWLRYTLW

Variants of: B1
Test: protein stability index of a GFP-peptide fusion (GPS, HEK-293T) (PSI 1-6); higher = more stable
Settings: c terminus: a fixed tail appended
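Also: lentivirally expressed fusions sorted by FACS into six bins by GFP to DsRed ratio, PSI derived from sequencing read proportions per bin multiplied by bin number.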

Protein stability index: each site, then its substitutions
H21: S 1.68, R 2.41, D 2.76, C 2.28, F 1.99, A 2.77, V 1.3, Q 1.87, P 2.58, G 1.75, N 2.4, E 2.28, K 3.76, I 1.76, T 2.72, L 1.46, Y 2.84
L22: M 2.57, V 2.58, Y 1.93, G 2.79, A 2.81, H 2.59, Q 2.62, C 2.79, K 3.09, I 2.36, E 3.18, D 2.96, N 2.47, F 2.1, R 2.68, S 1.92, T 3.17
R18: N 2.52, K 1.97, S 2.21, A 1.96, D 2.8, W 2.04, I 2.16, F 1.54, V 2.34, Y 3.03, M 1.93, H 2.4, T 2.26, G 2.8, Q 1.93, P 2.36, C 1.8, L 1.97
S23: V 1.28, C 1.42, I 2.8, R 2.35, E 2, T 1.89, K 2.64, Y 2.3, W 1.72, A 1.81, P 2.25, D 3.11, G 2.1, N 2.53
T24: S 2.53, N 3, I 2.08, V 1.62, H 2.57, K 3.38, W 1.55, A 2.72, L 2.4, Y 2.23, Q 1.55, G 3.01, D 2.44, E 2.67, P 2.35
R20: W 1.24, Y 2.32, T 2.57, L 2.81, G 2.38, C 2.4, M 2.08, F 1.9, S 2.42, V 1.6, N 2.54, P 3.21, H 2, D 2.54, Q 2.22, I 2.82, A 2.14, E 2.54, K 2.59
M19: T 2.84, E 3.34, W 2.9, P 2.14, S 2.84, K 3.67, Q 2.57, Y 2.5, F 2.18, V 2.21, I 4.04, C 2.61, N 2.68, R 4.54, D 2.76, A 3.21, L 2.31, H 2.89
K17: N 2.5, R 1.87, F 1.75, M 2.53, P 3.24, I 2.04, T 2.34, Y 1.76, L 1.92, S 2.65, H 3.01, Q 2.13, V 2.69

Variants of: B2
Test: as above
Settings: c terminus: a fixed tail appended

Protein stability index, by site and new letter:
L16: W 3.38, D 3.41, Q 2.4, V 1.5, E 2.06, A 3.49, F 3.23
L23: R 4.16, H 2.58, A 3.26, Q 3.84, S 2.99, D 2.6, P 4.2, F 2.46, E 2.74
Y4: N 3.92, R 2.28, F 2.53, Q 1.98, V 2.36
W13: N 4.03, V 3.87, K 2.71, A 2.71, E 2.56, F 2.73, G 3.3, R 2.4, H 2.36, I 3.42, D 1.74, Y 4.08
V15: N 2.59, C 3.85, R 1.61

From the supplement of paper PMC10567573
